From the RNAGym collection of RNA variant scans (doi:10.1073/pnas.2313332121)

B1: TPR t1 (parent)
chain: GACCAAUCUGCCCUCAGAGCUCGAGAACAUCUUCGGAUGCAGAGGAGGCAGGCUUCGGUGGCGCGAUAGCGCCAACGUCCUCAACCUCCAAUGCAUCCCACCACAUGAUGAUGCCUGAAGAGCCUUGGUUUUUUG

Variants of: B1
Test: polymerase ribozyme fitness, log enrichment relative to wild type (log ratio); higher = more active; in vitro selection for triplet polymerase activity
Method in brief: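 In triplicate, a single round of in vitro selection was run on each mutant library, PCR-built and transcribed, covering one subunit of a heterodimeric triplet polymerase ribozyme. Frozen incubation at −7 °C followed annealing with a biotinylated primer, partner subunit and triplets, and extended constructs were then gel-excised, streptavidin-captured and taken through RT-PCR. Fitness is the logarithm of genotype enrichment over wild-type enrichment, from inverse-variance-weighted replicate averages of Illumina-sequenced inputs and outputs. […] only genotypes with ≥10 input reads and ≥1 read per output were kept.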

| Variant | polymerase ribozyme fitness (log ratio) |
| --- | --- |
| G36U A111U | -3.05 |
| G36U A118U | -1.08 |
| G36U A121G | 0.373 |
| G36U C40A | -3.53 |
| G36U C40U A43C A46U G48C | -5.24 |
| G36U C53G C56A C72G | -3.23 |
| G36U C53U G61A U96G | -2.34 |
| G36U C56A | -1.83 |
| G36U C56U C115G | -3.57 |
| G36U C70G C89U | -5.64 |
| G36U C72G | -1.68 |
| G36U C72G C124U | -0.0425 |
| G36U C73U G107C | -6.17 |
| G36U C80A | -3.93 |
| G36U C86G | -2.22 |
| G36U C101A | -2.53 |
| G36U C102A C123U | -2.11 |
| G36U C115U | -2.01 |
| G36U C123U | 0.205 |
| G36U G39U G44A | -4.17 |
| G36U G47C G117U | -6.43 |
| G36U G47U | -2.97 |
| G36U G51C G69U | -2.55 |
| G36U G51C G69U C115U | -3.32 |

| Variant | polymerase ribozyme fitness (log ratio) |
| --- | --- |
| G36U G52A C97U G110A | -2.04 |
| G36U G57A | -2.09 |
| G36U G60U A111U | -2.87 |
| G36U G61A | -1.47 |
| G36U G63A C97U | -1.35 |
| G36U G63U C80U A84C | -4.1 |
| G36U G117U | -3.26 |
| G36U U55G C89G G113U | -4.27 |
| G36U U78G A105C | -3.65 |
| G36U U81A | -2.11 |
| G36U U96A | -2.69 |
| G36U U106A G127C | -1.83 |
| G36U U112G | -1.32 |
| G36U U112G G113U | -3.55 |
| G36U U116A | -4.2 |
| G36U U125A U133A | -2.46 |
| G36U U130G | -2.05 |
| A37C | -0.431 |
| A37C A43U C49G | -3.33 |
| A37C A46C C62U U78G | -1.66 |
| A37C A46C C124G | 0.609 |
| A37C A83U | -0.456 |
| A37C A91G | -2.03 |
| A37C A103C | -4.98 |

| Variant | polymerase ribozyme fitness (log ratio) |
| --- | --- |
| A37C A121U | 1.62 |
| A37C C53U C123U | 0.761 |
| A37C C56G C101A G110U G127U | -4.67 |
| A37C C62G G120U U125G U130C | -3.18 |
| A37C C64U C115G | -1.35 |
| A37C C104A | -1.22 |
| A37C C123G | 0.773 |
| A37C G39U C56U | -2.66 |
| A37C G44A A46C G47U U59C | -6.19 |
| A37C G44A C53A G63C C124A | -3.21 |
| A37C G44A C53U C104U | -1.64 |
| A37C G45C C72U C104G C115G | -7.48 |
| A37C G48C C53U U54A G60C C88A G93A C115U A121G | -6.81 |
| A37C G60U C82U A83U U87A | -2.34 |
| A37C G63U G122U | -2.81 |
| A37C G71C | -1.27 |
| A37C G71U C101A G127C | -2.36 |
| A37C U38G | -1.27 |
| A37C U54A C64U U109A | -6.92 |
| A37C U55C | -1.17 |
| A37C U67C U81C C123A | -5.95 |
| A37G | -0.185 |
| A37G A83C C88G U130G | -4.95 |
| A37G A121C | 2.11 |

| Variant | polymerase ribozyme fitness (log ratio) |
| --- | --- |
| A37G C49A | -0.708 |
| A37G C49G C64G A111U U126G | -6.45 |
| A37G C49G C82U | -0.637 |
| A37G C49U C82A U87C U106G U133G | -2.13 |
| A37G C53A C56A A90U A91C G113C | -2.55 |
| A37G C56U C102A | -1.87 |
| A37G C70G | -3.43 |
| A37G C72G C73U A74U | -6.02 |
| A37G C73A C82A A83G | -2.53 |
| A37G C73G U109A | -7.2 |
| A37G C76G G113A | -1.57 |
| A37G C76U | -1.3 |
| A37G C88A G113U | -5.31 |
| A37G C89A C102A C124U | -3.6 |
| A37G C94G | -2.1 |
| A37G C104G | -6.69 |
| A37G C114A | -1.28 |
| A37G G42A C79G C104U | -4.86 |
| A37G G44C | -0.927 |
| A37G G44C C72G U78C | -1.05 |
| A37G G52A | -1.1 |
| A37G G60A C102U | -3.61 |
| A37G G60U C80A | -5.24 |
| A37G G69U | -1.08 |

| Variant | polymerase ribozyme fitness (log ratio) |
| --- | --- |
| A37G G69U C99A C114A | -3.09 |
| A37G G113C G135A | -2.17 |
| A37G G117C | -2.52 |
| A37G U55A C73U A83C A90U U125A | -2.61 |
| A37G U132C | -1.86 |
| A37U | -0.355 |
| A37U A41U C88U | -2.75 |
| A37U A43C | -1.99 |
| A37U A43C G71U C79U U112A U116G U134C | -6.04 |
| A37U A46U | -2.98 |
| A37U A46U C64U C115A | -3.03 |
| A37U A50C G63U C79A C80G G107U G117C | -6.62 |
| A37U A50G | -0.867 |
| A37U A50G G52A A111G G117A | -2.93 |
| A37U A50U C94U | -1.81 |
| A37U A50U G52A | -2.94 |
| A37U A75U G120C | 1.14 |
| A37U A90C U96A | -0.653 |
| A37U A100C A103U | -5.74 |
| A37U A105C | -3.01 |
| A37U A111U | -3.3 |
| A37U C40A G69C U130A | -3.51 |
| A37U C40U A50C G51C A74U U109A U131G | -5.36 |
| A37U C49U C64U C114U | -3.02 |

| Variant | polymerase ribozyme fitness (log ratio) |
| --- | --- |
| A37U C64U C88U C102A | -2.71 |
| A37U C72U U96A | -0.172 |
| A37U C73G | -1.27 |
| A37U C76U | -0.3 |
| A37U C88U C101G C115G | -3.98 |
| A37U C99U | -2.37 |
| A37U C104U U116C | -0.911 |
| A37U G39A | -1.34 |
| A37U G44A | -2.19 |
| A37U G44C C53G U55C G61A C89U G117C | -4.88 |
| A37U G47A A68G C80A | -6.59 |
| A37U G47U U55G C114U | -3.49 |
| A37U G48A G61C A105U A111U | -6.69 |
| A37U G48A G61C U116A | -4.18 |
| A37U G51U G60C C85U U96A G113A | -4.21 |
| A37U G51U G77A A91U | -6.95 |
| A37U G52A C56A G110C A118U | -5.47 |
| A37U G52A G61A A105G G127C | -4.21 |
| A37U G52U G69C | -2.07 |
| A37U G58C A75U C80U G93A C97A | -6.83 |
| A37U G60A C101U | -0.477 |
| A37U G60C C62U | -2.01 |
| A37U G61U A83G C88A | -2.28 |
| A37U G61U G120C | 0.718 |

| Variant | polymerase ribozyme fitness (log ratio) |
| --- | --- |
| A37U G69A | -3.01 |
| A37U G69A G77A A90U C123U | -5.05 |
| A37U G69C U112A G128U | -4.19 |
| A37U G69U U125C | -3.4 |
| A37U G77C | -1.31 |
| A37U G120A | 1.2 |
| A37U U55G | -0.465 |
| A37U U96G | -0.312 |
| A37U U106C | -0.686 |
| A37U U112A | 0.71 |
| U38A A75U C82U A83C C88G U112C G122A | -2.99 |
| U38A A111U | -4.52 |
| U38A C73G C101A A119U A121U G122U | -2.99 |
| U38A C89G C114A C123A U131G | -4.1 |
| U38A C101U G117C | -4.18 |
| U38A G61U | -0.881 |
| U38A G63U U131A | -2.72 |
| U38A G120A | -0.255 |
| U38A U96G U112A G128A | -2.89 |
| U38C A43U | -2.21 |
| U38C C40U A46U U55A C73U | -3.3 |
| U38C C53G U59A U106A | -0.127 |
| U38C C64A | -6.78 |
